These results are taken from publication PMC8591454 (Frontiers in Microbiology, 2021).

This test has as its target T1, truncated capsid protein sar239 from genotype 1 HEV Sar55 strain (hepatitis E virus genotype 1, strain …, UniProt P33426 368-606).
T1 sequence: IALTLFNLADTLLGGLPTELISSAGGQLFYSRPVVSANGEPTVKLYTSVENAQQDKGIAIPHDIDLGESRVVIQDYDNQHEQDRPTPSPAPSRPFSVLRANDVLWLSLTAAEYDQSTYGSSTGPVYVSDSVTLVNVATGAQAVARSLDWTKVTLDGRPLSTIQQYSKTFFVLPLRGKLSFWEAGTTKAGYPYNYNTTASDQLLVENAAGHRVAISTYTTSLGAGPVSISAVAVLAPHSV
Kind of test: ELISA. Conditions: both partners purified. (In general: In an ELISA, binding on a coated surface is turned into a signal by an enzyme label.)

B1: His-tagged cell division control protein 42 (CDC42-His) (natural protein)
chain: not shown
notes: also called recombinant CDC42-His protein
Take B1: the binding result is listed as “binds”.
